Source: the supplement of paper PMC5998384

Experiments:
[1] = tested on: HeLa Kyoto; experiment: melting temperature (median over replicates), in situ; higher = more thermally stable
[2] = tested on: HeLa Kyoto; experiment: solubility in G1/S (NP-40 vs SDS abundance) (log2 ratio); higher = more soluble; settings: cell cycle stage: G1/S
[3] = tested on: HeLa Kyoto; experiment: thermal stability score vs G1/S (z-score of summed log2 fold changes over temperatures); higher = more thermally stable than in G1/S
[4] = tested on: HeLa Kyoto; experiment: solubility change mitosis vs G1/S (difference of NP-40 vs SDS log2 ratios) (log2 ratio difference); higher = more soluble in mitosis
[5] = cell cycle stage: early G1 (4.5 h after nocodazole release)
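Wherever melting temperature (median over replicates), in situ is given: HeLa Kyoto cells synchronized by double thymidine or nocodazole block, proteins quantified by TMT10plex mass spectrometry, three independent biological replicates.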
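Wherever solubility change mitosis vs G1/S (difference of NP-40 vs SDS log2 ratios) is given: synchronized HeLa Kyoto cells (double thymidine block for G1/S, nocodazole release for mitosis), protein amounts in NP-40 versus SDS lysates quantified by mass spectrometry, three biological replicates.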
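Wherever solubility in G1/S (NP-40 vs SDS abundance) is given: HeLa Kyoto cells arrested at G1/S by double thymidine block, proteins quantified by TMT10plex mass spectrometry in mild NP-40 versus SDS extracts, three biological replicates.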
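Wherever thermal stability score vs G1/S (z-score of summed log2 fold changes over temperatures) is given: synchronized HeLa Kyoto cells, proteins quantified by TMT10plex mass spectrometry, three biological replicates, mitosis taken 0.5 h after nocodazole release, G1/S directly after double thymidine block.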

Question: “MEDPTLYIVERPLPGYPDAEAPEPSSAGAQAAEEPSGAGSEELIKSDQVNGVLVLSLLDKIIGAVDQIQLTQAQLEERQAEMEGAVQSIQGELSKLGKAHATTSNTVSKLLEKVRKVSVNVKTVRGSLERQAGQIKKLEVNEAELLRRRNFKVMIYQDEVKLPAKLSISKSLKESEALPEKEGEELGEGERPEEDAAALELSSDEAVEVEEVIEESRAERIKRSGLRRVDDFKKAFSKEKMEKTKVRTRENLEKTRLKTKENLEKTRHTLEKRMNKLGTRLVPAERREKLKTSRDKLRKSFTPDHVVYARSKTAVYKVPPFTFHVKKIREGQVEVLKATEMVEVGADDDEGGAERGEAGDLRRGSSPDVHALLEITEESDAVLVDKSDSD [PTRF]” was tested. Which melting temperature ([1]; cell cycle stage: G1/S) did it give?
Answer: 54.4 °C

Question: What about the melting temperature ([1]; cell cycle stage: mitosis) of the same sequence?
Answer: 52.4 °C

Question: What about the “solubility in G1/S (log2)” value [2] of the same sequence?
Answer: -0.215

Question: What about the thermal stability score [3, 5] of the same sequence?
Answer: -3.64

Question: What about the thermal stability score ([3]; cell cycle stage: mitosis) of the same sequence?
Answer: -4.73

Question: What about the “solubility change mitosis (log2)” value [4] of the same sequence?
Answer: 0.094

Question: What does the source list for “MEDRLHMDNGLVPQKIVSVHLQDSTLKEVKDQVSNKQAQILEPKPEPSLEIKPEQDGMEHVGRDDPKALGEEPKQRRGSASGSEPAGDSDRGGGPVEHYHLHLSSCHECLELENSTIESVKFASAENIPDLPYDYSSSLESVADETSPEREGRRVNLTGKAPNILLYVGSDSQEALGRFHEVRSVLADCVDIDSYILYHLLEDSALRDPWTDNCLLLVIATRESIPEDLYQKFMAYLSQGGKVLGLSSSFTFGGFQVTSKGALHKTVQNLVFSKADQSEVKLSVLSSGCRYQEGPVRLSPGRLQGHLENEDKDRMIVHVPFGTRGGEAVLCQVHLELPPSSNIVQTPEDFNLLKSSNFRRYEVLREILTTLGLSCDMKQVPALTPLYLLSAAEEIRDPLMQWLGKHVDSEGEIKSGQLSLRFVSSYVSEVEITPSCIPVVTNMEAFSSEHFNLEIYRQNLQTKQLGKVILFAEVTPTTMRLLDGLMFQTPQEMGLIVIAARQTEGKGRGGNVWLSPVGCALSTLLISIPLRSQLGQRIPFVQHLMSVAVVEAVRSIPEYQDINLRVKWPNDIYYSDLMKIGGVLVNSTLMGETFYILIGCGFNVTNSNPTICINDLITEYNKQHKAELKPLRADYLIARVVTVLEKLIKEFQDKGPNSVLPLYYRYWVHSGQQVHLGSAEGPKVSIVGLDDSGFLQVHQEGGEVVTVHPDGNSFDMLRNLILPKRR [HLCS]”?
Answer: melting temperature ([1]; cell cycle stage: G1/S): 50.8 °C; melting temperature ([1]; cell cycle stage: mitosis): 51 °C; solubility in G1/S (log2) [2]: -0.0872; thermal stability score [3, 5]: -0.0478; thermal stability score ([3]; cell cycle stage: mitosis): 0.641; solubility change mitosis (log2) [4]: -0.216

Question: For “MEDYEQELCGVEDDFHNQFAAELEVLAELEGASTPSPSGVPLFTAGRPPRTFEEALARGDAASSPAPAASVGSSQGGARKRQVDADLQPAGSLPHAPRIKRPRLQVVKRLNFRSEEMEEPPPPDSSPTDITPPPSPEDLAELWGHGVSEAAADVGLTRASPAARNPVLRRPPILEDYVHVTSTEGVRAYLVLRADPMAPGVQGSLLHVPWRGGGQLDLLGVSLASLKKQVDGERRERLLQEAQKLSDTLHSLRSGEEEAAQPLGAPEEEPTDGQDASSHCLWVDEFAPRHYTELLSDDFTNRCLLKWLKLWDLVVFGHERPSRKPRPSVEPARVSKEATAPGKWKSHEQVLEEMLEAGLDPSQRPKQKVALLCGPPGLGKTTLAHVIARHAGYSVVEMNASDDRSPEVFRTRIEAATQMESVLGAGGKPNCLVIDEIDGAPVAAINVLLSILNRKGPQEVGPQGPAVPSGGGRRRRAEGGLLMRPIICICNDQFAPSLRQLKQQAFLLHFPPTLPSRLVQRLQEVSLRQGMRADPGVLAALCEKTDNDIRACINTLQFLYSRGQRELSVRDVQATRVGLKDQRRGLFSVWQEVFQLPRAQRRRVGQDPALPADTLLLGDGDAGSLTSASQRFYRVLHAAASAGEHEKVVQGLFDNFLRLRLRDSSLGAVCVALDWLAFDDLLAGAAHHSQSFQLLRYPPFLPVAFHVLFASSHTPRITFPSSQQEAQNRMSQMRNLIQTLVSGIAPATRSRATPQALLLDALCLLLDILAPKLRPVSTQLYSTREKQQLASLVGTMLAYSLTYRQERTPDGQYIYRLEPNVEELCRFPELPARKPLTYQTKQLIAREIEVEKMRRAEASARVENSPQVDGSPPGLEGLLGGIGEKGVHRPAPRNHEQRLEHIMRRAAREEQPEKDFFGRVVVRSTAVPSAGDTAPEQDSVERRMGTAVGRSEVWFRFNEGVSNAVRRSLYIRDLL [CHTF18]”, which melting temperature ([1]; cell cycle stage: G1/S) is on record?
Answer: 47 °C

Question: And the melting temperature ([1]; cell cycle stage: mitosis)?
Answer: 49.3 °C

Question: What about the “solubility in G1/S (log2)” value [2] of the same sequence?
Answer: 0.136

Question: What about the thermal stability score [3, 5] of the same sequence?
Answer: 1.86

Question: And the thermal stability score ([3]; cell cycle stage: mitosis)?
Answer: 2.46

Question: And the “solubility change mitosis (log2)” value [4]?
Answer: -0.209

Question: With “MEEASEGGGNDRVRNLQSEVEGVKNIMTQNVERILARGENLEHLRNKTEDLEATSEHFKTTSQKVARKFWWKNVKMIVLICVIVFIIILFIVLFATGAFS [VAMP8]” as the sequence, how does the melting temperature ([1]; cell cycle stage: G1/S) read?
Answer: 57.8 °C

Question: What about the melting temperature ([1]; cell cycle stage: mitosis) of the same sequence?
Answer: 55.5 °C

Question: What about the “solubility in G1/S (log2)” value [2] of the same sequence?
Answer: -0.136

Question: What about the thermal stability score [3, 5] of the same sequence?
Answer: -3.17

Question: What about the thermal stability score ([3]; cell cycle stage: mitosis) of the same sequence?
Answer: -6.62

Question: What about the “solubility change mitosis (log2)” value [4] of the same sequence?
Answer: 0.136

Question: Which results are given for “MEEECRVLSIQSHVIRGYVGNRAATFPLQVLGFEIDAVNSVQFSNHTGYAHWKGQVLNSDELQELYEGLRLNNMNKYDYVLTGYTRDKSFLAMVVDIVQELKQQNPRLVYVCDPVLGDKWDGEGSMYVPEDLLPVYKEKVVPLADIITPNQFEAELLSGRKIHSQEEALRVMDMLHSMGPDTVVITSSDLPSPQGSNYLIVLGSQRRRNPAGSVVMERIRMDIRKVDAVFVGTGDLFAAMLLAWTHKHPNNLKVACEKTVSTLHHVLQRTIQCAKAQAGEGVRPSPMQLELRMVQSKRDIEDPEIVVQATVL [PDXK]”?
Answer: melting temperature ([1]; cell cycle stage: G1/S): 55.5 °C; melting temperature ([1]; cell cycle stage: mitosis): 56.3 °C; solubility in G1/S (log2) [2]: 0.315; thermal stability score [3, 5]: 0.134; thermal stability score ([3]; cell cycle stage: mitosis): 0.0482; solubility change mitosis (log2) [4]: -0.0576
